Test [1] addresses T1, Human nectin-4 ECD-6His (TNT-175) (human, UniProt Q96NY8 32-349).
T1 construct: the entry holds the extracellular domain with the C-terminal 6His tag
T1 sequence: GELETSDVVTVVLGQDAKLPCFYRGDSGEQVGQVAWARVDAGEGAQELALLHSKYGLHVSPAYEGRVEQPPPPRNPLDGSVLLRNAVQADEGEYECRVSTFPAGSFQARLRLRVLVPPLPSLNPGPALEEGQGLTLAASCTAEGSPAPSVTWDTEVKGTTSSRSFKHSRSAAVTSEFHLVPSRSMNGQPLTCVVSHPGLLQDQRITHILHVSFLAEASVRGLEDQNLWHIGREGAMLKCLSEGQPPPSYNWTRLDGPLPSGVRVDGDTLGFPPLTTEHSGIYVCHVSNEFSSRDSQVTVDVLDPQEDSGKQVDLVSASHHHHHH
Nature of the test: competition ELISA; nectin-4 ECD premixed with TNT210, captured by the coat antibody; % of signal without premix antibody. In short, it runs like this:
(§1)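 Goat anti-mouse IgG was coated at 1 mg/mL in PBS overnight at 4° C. Premixes were applied for an hour, then rabbit anti-6×His HRP (1:4,000) for an hour at room temperature, then ABTS for 20 minutes. O.D. values, background-corrected, were reported relative to nectin-4 alone at its lowest dilution.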
(ELISA stands for enzyme-linked immunosorbent assay.)

Test [2] addresses T1, Human nectin-4 ECD-6His (TNT-175). Nature of the test: competition ELISA; nectin-4 ECD premixed with TNT203, captured by the coat antibody; % of signal without premix antibody. Put shortly:
as §1

The target is the same in test [3]. Nature of the test: competition ELISA; nectin-4 ECD premixed with TNT206, captured by the coat antibody; % of signal without premix antibody. In short, it runs like this: as §1
Test [4] shares this target. Nature of the test: competition ELISA; nectin-4 ECD premixed with TNT202, captured by the coat antibody; % of signal without premix antibody. Put shortly:
as §1

Test [5] shares this target. Nature of the test: competition ELISA; nectin-4 ECD premixed with TNT204, captured by the coat antibody; % of signal without premix antibody. In short, it runs like this:
as §1

The target is the same in test [6]. Nature of the test: competition ELISA; nectin-4 ECD premixed with TNT201, captured by the coat antibody; % of signal without premix antibody. In short, it runs like this:
as §1

Test [7] shares this target. Nature of the test: competition ELISA; nectin-4 ECD premixed with TNT212, captured by the coat antibody; % of signal without premix antibody. Put shortly: as §1
Test [8] has the same target. Nature of the test: competition ELISA; nectin-4 ECD premixed with TNT208, captured by the coat antibody; % of signal without premix antibody. Put shortly: as §1
The target is the same in test [9]. Nature of the test: competition ELISA; nectin-4 ECD premixed with TNT211, captured by the coat antibody; % of signal without premix antibody. Put shortly: as §1
The target is the same in test [10]. Nature of the test: competition ELISA; nectin-4 ECD premixed with TNT209, captured by the coat antibody; % of signal without premix antibody. In short, it runs like this: as §1
For test [11] the target is unchanged. Nature of the test: competition ELISA; nectin-4 ECD premixed with TNT207, captured by the coat antibody; % of signal without premix antibody. Put shortly:
as §1

The target is the same in test [12]. Nature of the test: SPR ProteOn, mAb on protein A. The procedure: Initial testing of binding of nectin-4 antibodies to nectin-4. […] Biotinylated protein A (15 μg/mL) was immobilized to the surface of an NLC chip. 30 nM of purified mAb supernatant was diluted in PBS-T and captured over the protein A surface. Serial dilutions of human nectin-4 were injected over the mAb-coated chips, and binding kinetics were determined. Chips were regenerated using 4:1 v/v of IgG elution butter/4M NaCl.

Test [13] deals with T2, human nectin-4 on cells (human, UniProt Q96NY8 32-510).
T2 construct: whole, on cells; also called PVRL4
T2 sequence (looked up): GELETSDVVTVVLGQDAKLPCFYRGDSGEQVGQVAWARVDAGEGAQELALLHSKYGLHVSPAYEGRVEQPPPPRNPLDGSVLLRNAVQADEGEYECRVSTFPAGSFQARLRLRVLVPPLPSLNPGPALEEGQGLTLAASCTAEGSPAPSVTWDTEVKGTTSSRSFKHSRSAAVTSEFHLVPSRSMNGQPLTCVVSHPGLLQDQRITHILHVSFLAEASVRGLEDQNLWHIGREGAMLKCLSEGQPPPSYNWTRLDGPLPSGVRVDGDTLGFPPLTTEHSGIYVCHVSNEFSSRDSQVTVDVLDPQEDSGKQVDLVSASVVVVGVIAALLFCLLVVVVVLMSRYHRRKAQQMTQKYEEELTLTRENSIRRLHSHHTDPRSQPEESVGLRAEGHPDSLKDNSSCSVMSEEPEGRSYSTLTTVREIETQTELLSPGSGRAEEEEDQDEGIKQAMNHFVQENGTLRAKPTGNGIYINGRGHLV
Nature of the test: flow cytometry MFI, MNK74 (nectin-4 positive) over AGS (negative). On the technique in general: Flow cytometry measures light scatter and fluorescence of single cells or particles in a stream.

Test [14] concerns the target T1, Human nectin-4 ECD-6His (TNT-175). Nature of the test: competition ELISA; nectin-4 ECD premixed with TNT205, captured by the coat antibody; % of signal without premix antibody. Put shortly: as §1

Results on one molecule are retold here after patent publication US20240382610A1 (TALLAC THERAPEUTICS, published 2024).

B1: TNT-189 (antibody, mouse IgG2a, kappa)
heavy: EVQLVQSGAEVKKPGSSVKVSCKASGGTFSSYAISWVRQAPGQGLEWMGGIIPIFGTANYAQKFQGRVTITADESTSTAYMELSSLRSEDTAVYYCARGYSSSWYEPYYFDYWGQGTLVTVSSAKTTAPSVYPLAPVCGDTTGSSVTLGCLVKGYFPEPVTLTWNSGSLSSGVHTFPAVLQSDLYTLSSSVTVTSSTWPSQSITCNVAHPASSTKVDKKIEPRGPTIKPCPPCKCPAPNLLGGPSVFIFPPKIKDVLMISLSPIVTCVVVDVSEDDPDVQISWFVNNVEVHTAQTQTHREDYNSTLRVVSALPIQHQDWMSGKEFKCKVNNKDLPAPIERTISKPKGSVRAPQVYVLPPPEEEMTKKQVTLTCMVTDFMPEDIYVEWTNNGKTELNYKNTEPVLDSDGSYFMYSKLRVEKKNWVERNSYSCSVVHEGLHNHHTTKSFSRTPGRPQGFGPP
light: DIQLTQSPSSLSASVGDRVTITCRASQGISNYLAWYQQKPGKAPKLLIYAASTLQSGVPSRFSGSGSGTDFTLTISSLQPEDFATYYCQQSYSTPYTFGQGTKLEIKRADAAPTVSIFPPSSEQLTSGGASVVCFLNNFYPKDINVKWKIDGSERQNGVLNSWTDQDSKDSTYSMSSTLTLTKDEYERHNSYTCEATHKTSTSPIVKSFNRNEC
Turning to B1, the “% of Positive” value is 2.7% in test [1]; 29.3% in [2]; 10.5% in test [3]; 4.3% in [4]; 3.9% in [5]; 1% in test [6]. Further, the “% of Positive” value in [7] stood at 3.1%; in [8], 4.3%; in test [9], 27%; in test [10], 26.7%; in [11], 2.4%; in test [14] it was 44.4%. Besides, the Kd in test [12] was 5.09 nM. The same molecule had a koff in test [12] of 0.00423 s⁻¹. For the same molecule, in test [12], the kon was determined as 832000 M⁻¹ s⁻¹. Further, in test [13], the “Fold-change of binding to MNK74 compared to control AGS” value worked out at 5 fold.

In general, Kd refers to the constant that tells how readily two partners part at equilibrium. For orientation: koff means the rate constant with which the complex falls apart. The term kon denotes a measure of how fast the partners come together. Lower therefore signals slow association.
